# Tests used:
# [1] = test system: GNH nanocarrier (GP41 endosome release motif, DNA condensing motif, NLS) (synthetic construct); assay: EMSA (agarose gel retardation); conditions: not given in the material (gel retardation methods text absent); ethidium bromide staining
# [2] = test system: HNH nanocarrier (H5WYG endosome release motif, DNA condensing motif, NLS) (synthetic construct); assay: EMSA (agarose gel retardation); conditions: not given in the material (gel retardation methods text absent); ethidium bromide staining
substance,measurement,setting,value
pGL3 plasmid,binding (N/P ratio for complete retardation),[1],1
same,binding (N/P ratio for complete retardation),[2],1
